target: T1, human PSMA polypeptide (prostate specific membrane antigen) (human, UniProt Q04609 1-750); assay: binding to LNCaP cells expressing PSMA
T1 construct: also called PSMA protein
Protocol: Binding affinity and specificity to a human PSMA polypeptide were tested using LNCaP cells expressing the PSMA protein.

T1 sequence (Q04609 whole entry): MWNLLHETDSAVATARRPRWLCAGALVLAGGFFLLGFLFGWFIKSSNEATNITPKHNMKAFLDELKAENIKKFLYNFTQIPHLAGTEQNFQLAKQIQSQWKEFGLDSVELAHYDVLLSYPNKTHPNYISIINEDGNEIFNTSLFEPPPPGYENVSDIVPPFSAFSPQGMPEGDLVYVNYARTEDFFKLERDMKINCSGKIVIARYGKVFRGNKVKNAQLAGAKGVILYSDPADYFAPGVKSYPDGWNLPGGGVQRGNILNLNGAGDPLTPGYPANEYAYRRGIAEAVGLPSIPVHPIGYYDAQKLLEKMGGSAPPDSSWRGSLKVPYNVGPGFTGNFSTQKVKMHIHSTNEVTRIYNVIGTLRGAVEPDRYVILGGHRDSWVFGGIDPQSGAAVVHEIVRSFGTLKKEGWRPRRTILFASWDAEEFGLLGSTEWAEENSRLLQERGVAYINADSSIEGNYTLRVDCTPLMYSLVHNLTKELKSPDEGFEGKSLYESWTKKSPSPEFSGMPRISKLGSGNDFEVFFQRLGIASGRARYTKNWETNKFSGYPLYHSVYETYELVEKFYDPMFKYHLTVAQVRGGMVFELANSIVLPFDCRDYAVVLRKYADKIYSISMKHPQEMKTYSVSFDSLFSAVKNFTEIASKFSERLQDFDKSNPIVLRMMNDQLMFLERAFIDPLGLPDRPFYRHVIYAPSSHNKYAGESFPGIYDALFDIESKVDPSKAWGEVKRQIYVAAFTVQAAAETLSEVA

Binder | EC50
Clone #6 (VH domain) (VHH, Single human VH antibody domain from a phage library, not camelid; also called VH-W5A4) VHH: EVQLVESGGGLVQPGGSLRLSCTVSGFTFSSYAVSWVRQAPGQGLEWVSAIGAGGGTYYADSVKGRFTISRDNSKNTLYLQMNSLRAEDTAVYYCAKDGADWGQGTLVTVSS | 32.7 nM
Clone #9 (VH domain) (VHH, Single human VH antibody domain from a phage library, not camelid; also called VH-4mut) VHH: EVQLVESGGGLVQPGGSLRLSCTVSGFTFDDYAVSWVRQAPGQGLEWVSSIGAGGGTYYADSVKGRFTISRDDSKDTLYLQMNSLRAEDTAVYYCAKDGVDWGQGTLVTVSS | 15.1 nM
Clone #8 (VH domain) (VHH, Single human VH antibody domain from a phage library, not camelid) VHH: EVQLVESGGGLVQPGGSLRLSCTVSGFTFSSYAVSWVRQAPGQGLEWVSSIGAGGGTYYADSVKGRFTISRDNSKNTLYLQMNSLRAEDTAVYYCAKDGADWGQGTLVTVSS | 10.8 nM
Clone #7 (VH domain) (VHH, Single human VH antibody domain from a phage library, not camelid) VHH: EVQLVESGGGLVQPGGSLRLSCTVSGFTFSSYAVSWVRQAPGQGLEWVSAIGAGGGTYYADSVKGRFTISRDNSKNTLYLQMNSLRAEDTAVYYCAKDGVDWGQGTLVTVSS | 8.65 nM
Clone #1 (scFv) (scFv) scFv: QVTLKESGAEVKKPGESLKISCKASGYSFTNYWIGWVRQMPGKGLEWMGIIYPGDSDTRYSPSFQGQVTISADKSISTAYLQWSSLKASDTAMYYCARQGGYYYGMDVWGQGTTVTVSSGGGGSGGSGSGGGGSVPVLTQPHSVSESPGKTVTISCTRSSGSIASNYVQWYQQRPGSSPTTVIYEDNQRPSGVPDRFSGSIDMSSNSASLTISGLRTEDEGDYYCQSYDSRNHVVFGGGTQLTVLG | 6.56 nM
Clone #2 (scFv) (scFv) scFv: QVQLQQSGAEVKKPGESLKISCKGSGYSFTNHWIAWVRQMPGKGLEWMGIIYPGDSDTRYSPSFQGQVTISADKSISTAYLQWSSLKASDTAMYYCARAQVGAFDIWGQGTMVTVSSGGGGSGGSGSSGGGSQSALTQPASVSGSPGQSITISCTRARDDVGGDNFVSWYQQHPGKAPKLMIYDVSNRPSGVSNRFSGSKSGNTASLTISGLQAEDEADYYCSSYTSSSTLPVFGGGTQLTVLG | 8.97 nM
Clone #3 (VH domain) (VHH, Single human VH antibody domain from a phage library, not camelid; also called VH-Z4D2) VHH: EVQLVESGGGVVQPGRSLRLSCAASGFTFSSYAMHWVRQAPGKGLEWVATIYQDGSESEYVDSVKGRFTVSRDNAKNTLYLQMDSLRAEDTATYYCVGRGSTSITPVWGLGTLVTVSS | 4.59 nM
Clone #11 (VH domain) (VHH, Single human VH antibody domain from a phage library, not camelid) VHH: EVQLVESGGGVVQPGRSLRLSCAASGFTFSSYAMHWVRQAPGKGLEWVATIYQDGSESEYVDSVKGRFTVSIDNAKNTLYLQMDSLRAEDTATYYCVGRASTSITPVWGLGTLVTVSS | 1.81 nM
Clone #5 (VH domain) (VHH, Single human VH antibody domain from a phage library, not camelid) VHH: EVQLVESGGGMVQPGRSLRLSCAASGFTFSSYAMHWIRQAPGKGLEWVATIYQDGSESEYVDSVKGRFAVSRDNAKNTLYLQMDSLRAEDTATYYCVGRASASITPVWGLGTLVTVSS | 2.95 nM
Clone #10 (VH domain) (VHH, Single human VH antibody domain from a phage library, not camelid) VHH: EVQMVESGGGVVQPGRSLRLSCAASGFTFSSYAMHWVRQAPGKGLEWVATIYQDGSESEYVDSVKGRFTVSIDNAKNTLYLQMDSLRAEDTATYYCVGRDSTSITPVWGLGTLVTVSS | 8.7 nM
Clone #4 (VH domain) (VHH, Single human VH antibody domain from a phage library, not camelid; also called VH-Fla; VH-F1a) VHH: EVQLVESGGGVVQPGRSLRLSCAASGFTFSSYAMHWVRQAPGKGLEWVATIYQDGSESEYVDSVKGRFTVSRDDAKNTLYLQMDSLRAEDTATYYCVGRDSTSITPVWGLGTLVTVSS | 3.05 nM

— patent US20240400716A1 (UNIVERSITY OF PITTSBURGH OF THE COMMONWEALTH SYSTEM OF …, published 2024)
